Source: US20020165132A1 (published 2002)
Positions of bridges follow the written chain, without caps; N, C: chain ends. Non-standard residues stand in square brackets, D forms with d. No end group written: not given here. AlaL = alanine half of a lanthionine (monosulfide) bridge

B1: c[AlaL3, AlaL14]-Somatostatin-14 (peptide)
chain: AG[AlaL]KNFFWKTFTS[AlaL]
modifications: bridge 3-14; not fully specified (bridges); printed as c[AlaL3, AlaL14]-Somatostatin-14
B2: Tyr-c[D-AlaL-Gly-Phe-L-AlaL]-NH2 (peptide)
peptide: Y[dAlaL]GF[AlaL]-NH2
modifications: bridge 2-5; not fully specified (bridges); printed as Tyr-c[D-AlaL-Gly-Phe-L-AlaL]-NH2
B3: Tyr-c[D-AlaL-Gly-Phe-L-AlaL]-OH (peptide)
peptide: Y[dAlaL]GF[AlaL]-OH
modifications: bridge 2-5; not fully specified (bridges); printed as Tyr-c[D-AlaL-Gly-Phe-L-AlaL]-OH

Assays:
[1] = biological target: SSTR2 Receptor (cloned somatostatin receptor); assay: inhibition of radioligand binding to cloned SSTR2
[2] = biological target: T1, µ-receptor (guinea pig ileum preparation) (guinea pig); assay: cell-based or functional assay
[3] = biological target: T1, µ-receptor (guinea pig ileum …); assay: cell-based or functional assay; remark: listed apart in the source

Sequence of SSTR2 Receptor (cloned somatostatin receptor) (P30875 whole entry): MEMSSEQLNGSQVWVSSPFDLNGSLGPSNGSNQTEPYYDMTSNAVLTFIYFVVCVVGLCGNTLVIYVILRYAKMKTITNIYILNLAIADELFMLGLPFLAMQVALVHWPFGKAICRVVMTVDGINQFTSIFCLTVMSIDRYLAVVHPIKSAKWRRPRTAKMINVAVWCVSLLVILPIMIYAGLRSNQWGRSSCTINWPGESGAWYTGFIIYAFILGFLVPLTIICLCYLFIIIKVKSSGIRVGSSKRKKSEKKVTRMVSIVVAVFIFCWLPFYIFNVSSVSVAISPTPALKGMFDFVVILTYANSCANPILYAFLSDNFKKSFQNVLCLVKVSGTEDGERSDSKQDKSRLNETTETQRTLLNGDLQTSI

Binder	IC50 [1]	GPI IC50 [2]	bioactivity at the GPI relative to [Leu^5]-enkephalin [3]
B1	0.3 nM		
B2		0.62 nM	400 fold
B3		0.45 nM	
